According to publication PMC3101105 (Journal of the American Chemical Society, 2011):

Legend:
[1] = biological target: fluoroacetate dehalogenase (FAcD) RPA1163 (Rhodopseudomonas palustris, UniProt Q6NAM1, Y219F); assay: isothermal microcalorimetry steady-state kinetics; format: biochemical; conditions: read-out: Fluoroacetate / Km; 100 mM Tris-H2SO4 pH 8.5, 30°C
[2] = biological target: fluoroacetate dehalogenase (FAcD) RPA1163 (Rhodopseudomonas palustris, UniProt Q6NAM1, F40A); assay: isothermal microcalorimetry steady-state kinetics; format: biochemical; conditions: read-out: Fluoroacetate / Km; 100 mM Tris-H2SO4 pH 8.5, 30°C
[3] = biological target: fluoroacetate dehalogenase (FAcD) RPA1163 (Rhodopseudomonas palustris, UniProt Q6NAM1, W185F); assay: isothermal microcalorimetry steady-state kinetics; format: biochemical; conditions: read-out: Fluoroacetate / Km; 100 mM Tris-H2SO4 pH 8.5, 30°C
[4] = biological target: fluoroacetate dehalogenase (FAcD) RPA1163 (Rhodopseudomonas palustris, UniProt Q6NAM1, W156H); assay: isothermal microcalorimetry steady-state kinetics; format: biochemical; conditions: read-out: Fluoroacetate / Km; 100 mM Tris-H2SO4 pH 8.5, 30°C
[5] = biological target: fluoroacetate dehalogenase (FAcD) RPA1163 (Rhodopseudomonas palustris, UniProt Q6NAM1, H155N); assay: isothermal microcalorimetry steady-state kinetics; format: biochemical; conditions: read-out: Fluoroacetate / Km; 100 mM Tris-H2SO4 pH 8.5, 30°C
O=C(O)CCl = assay: isothermal microcalorimetry steady-state kinetics; format: biochemical, Rhodopseudomonas palustris; conditions: 100 mM Tris-H2SO4 pH 8.5, 30°C
crystal structure = biological target: the molecule itself; assay: crystal structure

Molecule | Km (O=C(O)CCl) [µM] | kcat (O=C(O)CCl) [s⁻¹] | kcat/Km (O=C(O)CCl) [M⁻¹ s⁻¹] | other results
O=C(O)CF [fluoroacetate] |  |  |  | Km [1]: 1700 ± 200 µM; Km [2]: 4400 ± 800 µM; Km [3]: 3300 ± 600 µM; Km [4]: 8000 ± 3000 µM; Km [5]: 2900 ± 200 µM
fluoroacetate dehalogenase (FAcD) RPA1163 (Rhodopseudomonas palustris CGA009; F40A) | 1500 ± 400 | 0.000483 ± 0.00015 | 0.32 | 
fluoroacetate dehalogenase (FAcD) RPA1163 (Rhodopseudomonas palustris CGA009; H155N) | 2000 ± 300 | 0.0883 ± 0.00833 | 45 | 
fluoroacetate dehalogenase (FAcD) RPA1163 (Rhodopseudomonas palustris CGA009; W156H) | 6000 ± 1000 | 0.00167 ± 0.000333 | 0.27 | 
fluoroacetate dehalogenase (FAcD) RPA1163 (Rhodopseudomonas palustris CGA009; W185F) | 1000 ± 300 | 0.00533 ± 0.000667 | 5 | 
fluoroacetate dehalogenase (FAcD) RPA1163 (Rhodopseudomonas palustris CGA009; Y219F) | 1000 ± 70 | 0.007 ± 0.000667 | 7 | 
fluoroacetate dehalogenase RPA1163 (wild type) (enzyme, Rhodopseudomonas palustris CGA009) MPDLADLFPGFGSEWINTSSGRIFARVGGDGPPLLLLHGFPQTHVMWHRVAPKLAERFKVIVADLPGYGWSDMPESDEQHTPYTKRAMAKQLIEAMEQLGHVHFALAGHDRGARVSYRLALDSPGRLSKLAVLDILPTYEYWQRMNRAYALKIYHWSFLAQPAPLPENLLGGDPDFYVKAKLASWTRAGDLSAFDPRAVEHYRIAFADPMRRHVMCEDYRAGAYADFEHDKIDVEAGNKIPVPMLALWGASGIAQSAATPLDVWRKWASDVQGAPIESGHFLPEEAPDQTAEALVRFFSAAP |  |  |  | stoichiometry N (crystal structure): 2
